Assay results taken from patent US8563513 (VAN ANDEL RESEARCH INSTITUTE, dated 2013).
Each block holds one binder with its values, some of them ahead of it. Where no end group is shown, it is not given here.

Columns and labels:
[1] = molecular target: T1, PTH1R in cell membranes, G protein-coupled conformation (RG) (UniProt Q03431 27-593); assay: competition binding, PTH1R in cell membranes, RG state (dominant negative Gαs), n = 3
T1 construct: whole, on cells; Cell membranes, not intact cells; RG state studied by co-expressing the receptor with dominant negative Gαs; also called G protein-coupled receptor
T1 sequence (Q03431 27-593): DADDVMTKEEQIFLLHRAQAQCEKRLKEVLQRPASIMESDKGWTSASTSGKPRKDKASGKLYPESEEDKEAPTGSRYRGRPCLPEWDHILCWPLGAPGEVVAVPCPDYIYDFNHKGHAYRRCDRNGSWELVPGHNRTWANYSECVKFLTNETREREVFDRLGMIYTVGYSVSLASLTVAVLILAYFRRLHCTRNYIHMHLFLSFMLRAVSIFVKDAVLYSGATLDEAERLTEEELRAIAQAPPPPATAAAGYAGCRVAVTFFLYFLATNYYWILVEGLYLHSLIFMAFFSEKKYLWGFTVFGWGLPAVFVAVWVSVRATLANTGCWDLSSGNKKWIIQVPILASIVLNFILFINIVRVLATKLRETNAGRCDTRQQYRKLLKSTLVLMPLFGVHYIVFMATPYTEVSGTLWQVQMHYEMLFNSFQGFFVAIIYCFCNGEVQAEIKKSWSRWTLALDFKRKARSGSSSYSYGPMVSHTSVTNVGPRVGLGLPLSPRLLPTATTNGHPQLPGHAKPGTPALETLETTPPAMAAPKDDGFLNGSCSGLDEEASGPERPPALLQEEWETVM

[2] = molecular target: T2, MBP-PTH1R ECD-(His)6 fusion protein (UniProt Q03431 29-187); assay: AlphaScreen single point competition; peptide 20 µM against biotin-PTH(7-34)NH2 (23 nM) on MBP-PTH1R-ECD (23 nM) [panel H]
T2 construct: range 29-187; Expressed in E. coli, disulfide shuffled in vitro; also called MBP-PTH1R ECD-H6; MBP-PTH1R ECD fusion protein
T2 sequence: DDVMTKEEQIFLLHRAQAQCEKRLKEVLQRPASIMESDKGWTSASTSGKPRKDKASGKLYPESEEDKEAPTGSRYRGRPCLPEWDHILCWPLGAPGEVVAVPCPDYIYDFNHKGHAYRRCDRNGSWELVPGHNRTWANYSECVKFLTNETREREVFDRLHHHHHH
Procedure: (§1) ECD-peptide binding assays. The binding of peptides to the MBP-PTH1R ECD-H6 fusion protein was assessed using an AlphaScreen assay (Perkin-Elmer). […] The pre-coupling reactions were mixed, un-labeled competitor peptides were added as indicated, and the reactions were incubated 4 to 5 hrs to reach equilibrium. Photon counts were recorded in 384-well optiplates using an Envision 2104 plate reader (Perkin-Elmer). Prism 5.0 software (GraphPad Software, San Diego) was used to fit the data to a fixed-slope dose-response inhibition equation for determination of IC50 values. Real-time analysis of the binding of peptides to the isolated PTH1R ECD using the Octet Red system (ForteBio) was performed as described in below.

[3] = molecular target: T2, MBP-PTH1R ECD-(His)6 fusion protein; assay: AlphaScreen single point competition; peptide 20 µM against biotin-PTH(7-34)NH2 (23 nM) on MBP-PTH1R-ECD (23 nM) [panel A]
Procedure: as §1

[4] = molecular target: T2, MBP-PTH1R ECD-(His)6 fusion protein; assay: AlphaScreen single point competition; peptide 20 µM against biotin-PTH(7-34)NH2 (23 nM) on MBP-PTH1R-ECD (23 nM) [panel I]
Procedure: as §1

[5] = molecular target: T2, MBP-PTH1R ECD-(His)6 fusion protein; assay: AlphaScreen single point competition; peptide 20 µM against biotin-PTH(7-34)NH2 (23 nM) on MBP-PTH1R-ECD (23 nM) [panel B]
Procedure: as §1

Binder: SVSEIQLMHNLGKHLNSMERVEWLRKLIQDVHNF-NH2 [PTH(1-34)NH2 [K27L/L28I]]
IC50 [1]: 0.38 nM
IC50 Log M [1]: -9.5 Log M

B1: PTH(15-34)NH2 (peptide)
peptide: LNSMERVEWLRKKLQDVHNF-NH2
notes: also called C-terminally amidated 15-34 fragment of PTH
binding result [2]: binds

Binder: LNSMERVEWLRKKLQDAHNF-NH2 (also called PTH(15-34)NH2 [V31A]) [V31A]
binding result [2]: binds

Binder: LNSMERVEALRKKLQDVHNF-NH2 (also called PTH(15-34)NH2 [W23A]) [W23A]
binding result [2]: no binding (tested: 20 µM)

Binder: LNSMERVEWLRKKIQDIHNF-NH2 (also called PTH(15-34)NH2 [L28I/V31I]) [L28I/V31I]
binding result [3]: binds

B2: PTH(15-34)NH2 [W23′F/K27′L/L28′I/V31′I] (peptide)
peptide: LNSMERVEFLRKLIQDIHNF-NH2
notes: Quadruple swap peptide in the PTH(15-34)NH2 scaffold; also called W23′F/K27′L/L28′I/V31′I peptide
binding result [3]: binds

B3: PTH(15-34)NH2 [W23′F] (peptide)
peptide: LNSMERVEFLRKKLQDVHNF-NH2
notes: Hybrid PTH/PTHrP peptide in the PTH(15-34)NH2 scaffold
binding result [3]: binds

B4: PTH(15-34)NH2 [K27′L/V31′I] (peptide)
peptide: LNSMERVEWLRKLLQDIHNF-NH2
notes: as for B3
binding result [3]: binds

B6: PTH(15-34)NH2 [W23′F/K27′L] (peptide)
peptide: LNSMERVEFLRKLLQDVHNF-NH2
notes: as for B3
binding result [3]: binds

Binder: LNSMERVEWLRKKAQDVHNF-NH2 (also called PTH(15-34)NH2 [L28A]) [L28A]
binding result [2]: no binding (tested: 20 µM)

B9: PTH(15-34)NH2 [V31′I] (peptide)
peptide: LNSMERVEWLRKKLQDIHNF-NH2
notes: as for B3
binding result [3]: binds

Binder: LNSMERVEFLRKKIQDVHNF-NH2 (also called PTH(15-34)NH2 [W23F/L28I]) [W23F/L28I]
binding result [3]: binds

Binder: LNSMERAEWLRKKLQDVHNF-NH2 (also called PTH(15-34)NH2 [V21A]) [V21A]
binding result [2]: binds

Binder: LNSMERVEWLRKKLQDVANF-NH2 (also called PTH(15-34)NH2 [H32A])
binding result [2]: binds

Binder: LNSMERVEWLRKALQDVHNF-NH2 (also called PTH(15-34)NH2 [K27A]) [K27A]
binding result [2]: binds

Binder: LNSMERVEWLRKKLQDVHNA-NH2 (also called PTH(15-34)NH2 [F34A]) [F34A]
binding result [2]: binds

Binder: GKSIQDLRARFFLHHLIAEIHTA-NH2 (also called PTHrP(12-34)NH2 [R20A])
binding result [4]: no binding (tested: 20 µM)

B10: PTHrP(12-34)NH2 [L27′K] (peptide)
peptide: GKSIQDLRRRFFLHHKIAEIHTA-NH2
notes: Hybrid PTH/PTHrP peptide in the PTHrP(12-34)NH2 scaffold
binding result [5]: binds

Binder: GKSIADLRRRFFLHHLIAEIHTA-NH2 (also called PTHrP(12-34)NH2 [Q16A]) [Q16A]
binding result [4]: binds

B11: PTHrP(12-34)NH2 [I28′L] (peptide)
peptide: GKSIQDLRRRFFLHHLLAEIHTA-NH2
notes: as for B10
binding result [5]: binds

Binder: GKSIQDLRRRFFLHHAIAEIHTA-NH2 (also called PTHrP(12-34)NH2 [L27A]) [L27A]
binding result [4]: binds

B12: PTHrP(12-34)NH2 [L27′K/I31′V] (peptide)
peptide: GKSIQDLRRRFFLHHKIAEVHTA-NH2
notes: as for B10
binding result [5]: binds

B13: PTHrP(12-34)NH2 [L27′K/I28′L] (peptide)
peptide: GKSIQDLRRRFFLHHKLAEIHTA-NH2
notes: as for B10
binding result [5]: binds

B14: PTHrP(12-34)NH2 [F23′W/L27′K/I28′L/I31′V] (peptide)
peptide: GKSIQDLRRRFWLHHKLAEVHTA-NH2
notes: Quadruple swap peptide in the PTHrP(12-34)NH2 scaffold; also called quadruply mutant PTHrP peptide
binding result [5]: binds

Binder: GKSIQDLRRRFFLHHLLAEVHTA-NH2 (also called PTHrP(12-34)NH2 [I28L/I31V]) [I28L/I31V]
binding result [5]: binds

Binder: GKSIQDLRRAFFLHHLIAEIHTA-NH2 (also called PTHrP(12-34)NH2 [R21A]) [R21A]
binding result [4]: binds

B16: PTHrP(12-34)NH2 [F23′W/L27′K] (peptide)
peptide: GKSIQDLRRRFWLHHKIAEIHTA-NH2
notes: as for B10
binding result [5]: binds

Binder: GKSIQDLRRRFFLHHLAAEIHTA-NH2 (also called PTHrP(12-34)NH2 [I28A]) [I28A]
binding result [4]: binds

Results, then the binder that gave them:

binding result [2]: no binding (tested: 20 µM)
Binder: LNSMERVEWARKKLQDVHNF-NH2 (also called PTH(15-34)NH2 [L24A])

binding result [3]: binds
Binder: LNSMERVEFLRKKLQDIHNF-NH2 (also called PTH(15-34)NH2 [W23F/V31I]) [W23F/V31I]

binding result [2]: binds
Binder: LNSMARVEWLRKKLQDVHNF-NH2 (also called PTH(15-34)NH2 [E19A]) [E19A]

binding result [3]: binds
B5: PTH(15-34)NH2 [K27′L] (peptide)
peptide: LNSMERVEWLRKLLQDVHNF-NH2
notes: as for B3

binding result [2]: binds
Binder: LNSMERVEWLRAKLQDVHNF-NH2 (also called PTH(15-34)NH2 [K26A]) [K26A]

binding result [2]: binds
Binder: LNSMERVEWLRKKLADVHNF-NH2 (also called PTH(15-34)NH2 [Q29A]) [Q29A]

binding result [3]: binds
B7: PTH(15-34)NH2 [K27′L/L28′I] (peptide)
peptide: LNSMERVEWLRKLIQDVHNF-NH2
notes: as for B3

binding result [3]: binds
B8: PTH(15-34)NH2 [L28′I] (peptide)
peptide: LNSMERVEWLRKKIQDVHNF-NH2
notes: as for B3

binding result [2]: binds
Binder: LNSMEAVEWLRKKLQDVHNF-NH2 (also called PTH(15-34)NH2 [R20A])

binding result [4]: binds
Binder: GKSIQDLRRRFALHHLIAEIHTA-NH2 (also called PTHrP(12-34)NH2 [F23A]) [F23A]

binding result [4]: binds
Binder: GKSIQDLARRFFLHHLIAEIHTA-NH2 (also called PTHrP(12-34)NH2 [R19A]) [R19A]

binding result [4]: binds
Binder: GKSIQDLRRRFFLHHLIAEIHAA-NH2 (also called PTHrP(12-34)NH2 [T33A]) [T33A]

binding result [4]: binds
Binder: GKSIQDLRRRFFLHHLIAEAHTA-NH2 (also called PTHrP(12-34)NH2 [I31A]) [I31A]

binding result [4]: binds
Binder: GKSIQDLRRRFFLHHLIAEIATA-NH2 (also called PTHrP(12-34)NH2 [H32A])

binding result [5]: binds
Binder: GKSIQDLRRRFWLHHLIAEVHTA-NH2 (also called PTHrP(12-34)NH2 [F23W/I31V]) [F23W/I31V]

binding result [5]: binds
B15: PTHrP(12-34)NH2 [I31′V] (peptide)
peptide: GKSIQDLRRRFFLHHLIAEVHTA-NH2
notes: as for B10

binding result [4]: binds
Binder: GKSIQDLRRRFFAHHLIAEIHTA-NH2 (also called PTHrP(12-34)NH2 [L24A])

binding result [5]: binds
Binder: GKSIQDLRRRFWLHHLLAEIHTA-NH2 (also called PTHrP(12-34)NH2 [F23W/I28L]) [F23W/I28L]

binding result [5]: binds
B17: PTHrP(12-34)NH2 [F23′W] (peptide)
peptide: GKSIQDLRRRFWLHHLIAEIHTA-NH2
notes: as for B10
